Results from US8912148B2, “Methods of treating a disease or condition associated with abnormal angiogenesis” (Covx Technology Ireland, Ltd., priority 2006, dated 2014).
Starred links: 1 amine or outer side, 2 acyl side, 3 side chain; linkers in the order of their positions; H or OH if unused. Non-standard residues stand in square brackets, D forms with d. No end group written: not given here. Phe(4-COOH) = N[C@@H](Cc1ccc(C(=O)O)cc1)C(=O)O; AcK = CC(=O)NCCCC[C@H](N[*:1])C(=O)[*:2]; 0P = not defined here

How the values were obtained:
[1] = biological target: T1, human angiopoietin-2 protein (Homo sapiens, UniProt O15123); assay: Competitive ELISA: inhibition of Ang-2-Tie-2 binding, plates coated with Ang-2 (Table 7)
T1 construct: purchased R&D Systems
T1 sequence (O15123 19-496): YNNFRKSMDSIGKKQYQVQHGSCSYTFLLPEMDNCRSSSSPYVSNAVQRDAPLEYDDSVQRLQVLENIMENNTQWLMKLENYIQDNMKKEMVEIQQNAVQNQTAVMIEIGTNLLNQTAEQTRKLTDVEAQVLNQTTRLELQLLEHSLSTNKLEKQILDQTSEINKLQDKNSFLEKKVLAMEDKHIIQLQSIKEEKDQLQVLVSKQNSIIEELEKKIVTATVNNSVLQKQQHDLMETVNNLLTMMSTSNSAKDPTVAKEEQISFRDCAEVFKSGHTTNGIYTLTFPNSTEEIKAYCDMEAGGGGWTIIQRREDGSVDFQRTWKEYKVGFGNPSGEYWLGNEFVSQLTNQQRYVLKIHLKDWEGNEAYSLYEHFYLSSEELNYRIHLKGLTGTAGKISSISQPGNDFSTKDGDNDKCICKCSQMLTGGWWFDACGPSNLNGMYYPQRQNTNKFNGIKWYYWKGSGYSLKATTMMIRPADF
Method: The ability of Ang-2 binding compounds to interact with Ang-2 was measured by competition with Tie-2.
For competitive ELISA, human angiopoietin-2 protein and Tie-2-Fc (R&D Systems) were reconstituted without carrier protein. Mouse anti-human Tie-2 (Pharmingen) was used as the primary antibody and goat anti-mouse-IgG1-HRP (Pierce) was used as the secondary antibody. TMB substrate from Pierce was used.
High-binding half-well plates were coated with Ang-2 (100 ng/well) in 50 μl PBS and incubated at 4° C. overnight. Plates were washed three times with washing buffer (0.1% Tween 20, PBS, pH 7.4) and blocked with Superblock (Scytek), 100 μl/well at room temperature (“RT”) for 1 hour. After removing the blocking solution, 50 μl of an Ang-2 binding peptide compound (1 uM and 5× serial dilution) in the presence of 0.25 nM hTie-2-Fc using Superblock as diluent was added and incubated at RT for 2 hours. Plates were washed 3 times with washing buffer. Then, 50 ul of 0.1 ug/ml mouse anti-human Tie-2 diluted in Superblock added and incubated at RT for 1 hour. Following incubation, 50 ul of 1:5,000 dilution of goat anti-mouse IgG-HRP in Superblock was then added and incubated at RT for one hour. After washing 3 times, 50 μl (25 μl TMB+25 μl H2O2) was added, and incubated for 3-5 minutes. Color development was monitored and stopped with 25 μl of 2 M H2SO4. OD450 nm with a correction wavelength of 540 nm was measured.
In Table 7, compounds of SEQ ID NOs: 21-23 are Ang-2 binding peptides alone, not conjugated to either a linker or linker-antibody; compounds of SEQ ID NOs:65 and 66 are Ang-2 binding peptides conjugated to a linker-antibody, where the linker is 4P (“4” PEG) and has the structure of the linker shown in FIG. 2; and compounds 26-63 are Ang-2 binding peptides conjugated to a linker-antibody, where the linker is OP (“O” PEG) and has the structure of the linker shown in FIG. 3. Compounds 24-63 were conjugated to humanized aldolase antibody h38c2 and the linker structures shown in FIG. 2 (4P) and FIG. 3 (OP) when obtainng the data shown below, except where otherwise indicated.
In Table 7, amino acid sequences of peptide compounds are shown with the position of linker OP or 4P indicated in parentheses following the internal amino acid residue to which the linker is attached. For compound of SEQ ID NO:67, the N-terminal “OP” linker is indicated at the beginning of the peptide sequence.

[2] = biological target: T1, human angiopoietin-2 protein; assay: Reverse competition ELISA: inhibition of Ang-2-Tie-2 binding, plates coated with Tie-2-Fc (Table 8); settings: reverse competitive ELISA; peptide linked to antibody h38c2 via 0P linker
Method: For reverse competition ELISA, human Tie-2-Fc, angiopoietin-2 protein, biotinylated anti-human Ang-2 antibody, and streptavidin HRP(R&D Systems) and TMB substrate from Pierce were used.
High-binding half-well plates were coated with Tie-2-Fc (50 ng/well) in 50 μl PBS and incubated at 4° C. overnight. Plates were washed three times with washing buffer (0.1% Tween 20, PBS, pH 7.4) and blocked with Superblock, 150 μl/well at RT for 1 hour. Plates were washed three times. Following washing, 50 μl of an Ang-2 binding peptide compound (50 nM, 5× serial dilution) in the presence of 50 ng/ml (0.83 nM) Ang-2 in Superblock were added and incubated at RT for 1 hour. Plates were washed 3 times, 50 μl of 1 μg/mlbiotinylated anti-Ang-2 detection antibody in Superblock was added and incubated at RT for 2 hours. Plates were washed 3 times, and 50 μl of streptavidin HRP (1:200 dilution in Superblock) was added at RT for 20 minutes. Plates were washed 3 times, and 50 μl (25 μl TMB+25 μl H2O2) substrate solution was added and incubated for 20-30 minutes. Color development was stopped with 25 μl of 2 M H2SO4. OD450 nm with a correction wavelength of 540 nm was measured.
IC50 values are provided for the targeting peptide plus linker (as shown in FIG. 3) and the targeting peptide linked to an antibody (P) via the linker of FIG. 3, unless otherwise specified.

Co10205 cells = assay: Xenograft studies: subcutaneous tumor growth in nude mice, % T/C (Table 10); format: in vivo
Method: Co10205 cells were cultured with 10% FBS RPMI medium and 3×10^6 cells in 0.1 ml Hank's balanced salt solution (HBSS) were injected subcutaneously into the upper right flank of nude mice. After 7-9 days, animals were randomized into appropriate number of groups with average tumor size of 200-300 mm^3. Mice were then treated with the requisite amount of compounds of the invention and tumor volumes were measured twice a week. Animals were terminated once their average tumor volume reached 2000 mm^3. Upon termination, tumors were weighed and saved for further histological studies. Treatment efficacy was evaluated by measuring the difference in the tumor volumes of treated versus control groups. Results are reported as % T/C, where % T/C was calculated as: % T/C=(Vt−V0)/(Ct−C0)×100, where, V0 and Vt were the average tumor volumes of treated groups at the beginning and termination of the group. CO and Ct were the average tumor volumes of the control group at the beginning and termination of the group (Table 10).

Recombinant human Ang-2 = biological target: T2, Recombinant human Ang-2 (Homo sapiens, UniProt O15123); assay: Truncation study: competition with compound 43 linked to linker and h38c2 for binding to coated Ang-2 (Table 9); settings: competition with compound 43-linker-h38c2 at 10 ng/mL, read-out: Ang-2 T IC50
T2 sequence (O15123 19-496): T1 sequence (O15123 19-496)
Method: Recombinant human Ang-2 was coated on microtiter plates at 0.5 μg/mL in 100 μL, overnight at 2-8° C. Plates were washed between all steps and all subsequent incubations occurred at room temperature. Plates were blocked with 250 μL per well of SuperBlock for 1-3 hours. Test compounds were pre-mixed with compound 43 linked to linker (as shown in FIG. 3) and h38c2 at 10 ng/mL. Peptide mixtures in 100 μL were then added at the listed final concentrations, the plates sealed, and incubated for 1-2 hours. Bound compound 43 was detected with 100 μL of a 1:20,000 dilution of HRP-labeled anti-human IgG reagent for 1-2 hours. Finally, 100 μL TMB substrate was added for 10 minutes and the reaction stopped with 100 μL of 2 NH2SO4 stop solution.

[3] = P = targeting peptide linked to antibody h38c2 via the linker, read-out: Ang-2 P IC50
[4] = T = targeting peptide plus linker (compounds 21-23: peptide alone), read-out: Ang-2 T IC50

IC50 [1, 3] [µM]	Substance	further results
0.08	37 (QXYQPLDEIDXTLYDQFMLQQG; AcK; K(0P) modified lysine; Anti-angiogenic peptide) [Compound 37]	
0.0286	R^1-QNY QPL DEL DKT LYD QFM LQQ G-R^2 (QNYQPLDELDKTLYDQFMLQQG; also: variable termini R1, R2) [Compound 28]	IC50 [1, 4]: 0.175 µM; IC50 [2]: 0.00015 µM; % TC 3 mg/kg 1×/wk (Co10205 cells; 3 mg/kg 1×/wk): 34%; % TC 10 mg/kg 1×/wk (Co10205 cells; 10 mg/kg 1×/wk): 38%
0.0181	(Amido 2-PEG)QAcKY QPL DEL DK(OP)T LYD QFMLQQ G (QXYQPLDELDXTLYDQFMLQQG; amido-2-PEG cap; acetyl-lysine; OP linker at K11; Anti-angiogenic peptide) [Compound 52]	
0.0144	60 (QHYQPLDELDXTLYDQFMLQQG; not fully specified; K(0P) modified lysine; Anti-angiogenic peptide) [Compound 60]	
	87 (Ac-[AcK]YQPLDE[AcK]DK(0P)TLYDQFMLQQG-NH2; reading uncertain; also: 0P linker on K10, reactive end group for antibody) [Compound 87]	IC50 (Recombinant human Ang-2): > 4 µM
0.0888	33 (Q[AcK]YQPLDEK(0P)DETLYDQFMLQQG; reading uncertain) [Compound 33]	
0.0413	62 (Q[AcK]YQPLDE[AcK]DK(0P)TL[Phe(4-COOH)]DQFMLQQG; not fully specified (C-terminus); reading uncertain; also: 0P linker on K11, antibody h38c2 conjugate or reactive form) [Compound 62]	
0.0405	25: "compounds of SEQ ID NOs:65 and 66 are Ang-2 binding peptides conjugated to a linker-antibody, where the linker is 4P (“4” PEG)" (QNYQPLDELDXTLYDQFMLQQG; 4P PEG linker conjugated to antibody; Anti-angiogenic peptide) [Compound 25]	
0.0161	59 (QRYQPLDELDXTLYDQFMLQQG; K(0P) modified lysine; Anti-angiogenic peptide) [Compound 59]	
0.153	36 (QXYQPLDELDXTIYDQFMLQQG; AcK; K(0P) modified lysine; Anti-angiogenic peptide) [Compound 36]	
	88 (Ac-YQPLDE[AcK]DK(0P)TLYDQFMLQQG-NH2; reading uncertain; also: 0P linker on K9, reactive end group for antibody) [Compound 88]	IC50 (Recombinant human Ang-2): > 4 µM
0.0174	QAcKY QPL DEL DK(4P)T LYD QFM LQQ G (QXYQPLDELDXTLYDQFMLQQG; not fully specified; acetyl-lysine; 4P PEG linker to antibody at K11; Anti-angiogenic peptide) [Compound 24, "the second amino acid residue is epsilon acyl lysine ... the linking position (in this case a 4P linker) is the lysine residue 11"]	
0.0167	35 (QXYQXLDELDXTLYDQFMLQQG; AcK; hydroxyproline; K(0P); Anti-angiogenic peptide) [Compound 35]	
0.703	38 (QXYQPLDELDXTXYDQFMLQQG; not fully specified; AcK; K(0P); homocyclohexylalanine; Anti-angiogenic peptide) [Compound 38]	IC50 [1, 4]: > 5 µM
0.358	40 (QXYQPLDELDXTXYDQFMLQQG; AcK; K(0P); thienylalanine; Anti-angiogenic peptide) [Compound 40]	IC50 [1, 4]: > 5 µM
> 1	31 (Q[AcK]YQPLDELDETK(0P)YDQFMLQQG; reading uncertain; also: printed as Q(AcK)Y QPL DEL DET K(0P)YD QFM LQQ G) [Compound 31]	IC50 [1, 4]: > 5 µM
	89 (Ac-QPLDE[AcK]DK(0P)TLYDQFMLQQG-NH2; reading uncertain; also: 0P linker on K8, reactive end group for antibody) [Compound 89]	IC50 (Recombinant human Ang-2): > 4 µM
	90 (Ac-PLDEK(Ac)DK(0P)TLYDQFMLQQG-NH2; reading uncertain; also: 0P linker on K7, reactive end group for antibody) [Compound 90]	IC50 (Recombinant human Ang-2): > 4 µM
0.258	39 (QXYQPLDELDXTXYDQFMLQQG; AcK; K(0P); homophenylalanine; Anti-angiogenic peptide) [Compound 39]	
